Laboratory results published in US20060084596A1 (UNIVERSITY OF SOUTH FLORIDA, published 2006).
Several values for one entry are separate records, joined by “and”; a condition that tells them apart may be missing. Equal values may be shown once. Positions of bridges follow the written chain, without caps; N, C: chain ends. Non-standard residues stand in square brackets, D forms with d. No end group written: not given here. d2Nal = N[C@H](Cc1ccc2ccccc2c1)C(=O)O; dAbu = CC[C@@H](N)C(=O)O

B1: GFB-122 (designed binder)
peptide: GDDY
modifications: linker N-C via 3‑aminomethyl‑5‑aminobenzamide; also: four loops on But-Calix calix[4]arene scaffold
B2: GFB-121 (designed binder)
peptide: [dAbu]DGD
modifications: linker N-C via 3‑aminomethyl‑5‑aminobenzamide; also: four loops joined to But-Calix calix[4]arene scaffold
B3: GFB-134 (designed binder)
peptide 1: GDGY
peptide 2: GDDY
modifications: also: 3 GDGY loops and 1 GDDY loop on But-Calix scaffold, linker to a chain's N/C-terminus via 3-aminomethyl-5-aminobenzamide
B4: GFB-108 (designed binder)
peptide: [dA]DGD
modifications: linker N-C via 3‑aminomethyl‑5‑aminobenzamide; also: four loops on But-Calix calix[4]arene scaffold
B5: GFB-133 (designed binder)
peptide: GDGY
modifications: linker N-C via 3‑aminomethyl‑5‑aminobenzamide; also: 3 GDGY loops on But-Calix scaffold, CO2H at fourth position
B6: GFB-118 (designed binder)
peptide: [d2Nal]DGD
modifications: linker N-C via 3‑aminomethyl‑5‑aminobenzamide; also: four loops joined to But-Calix calix[4]arene scaffold
B7: GFB-112 (designed binder)
peptide: ADGD
modifications: linker N-C via 3‑aminomethyl‑5‑aminobenzamide; also: four loops on But-Calix calix[4]arene scaffold
B8: GFB-106 (designed binder)
peptide: GDDD
modifications: linker N-C via 3‑aminomethyl‑5‑aminobenzamide; also: four loops on But-Calix calix[4]arene scaffold
B9: GFB-101 (designed binder)
peptide: GFGD
modifications: linker N-C via 3‑aminomethyl‑5‑aminobenzamide; also: four loops on O4-Calix calix[4]arene scaffold
B10: GFB-117 (designed binder)
peptide: GDND
modifications: linker N-C via 3‑aminomethyl‑5‑aminobenzamide; also: four loops on But-Calix scaffold
B11: GFB-107 (designed binder)
peptide: GDGD
modifications: linker N-C via 3‑aminomethyl‑5‑aminobenzamide; also: four loops on But-Calix calix[4]arene scaffold
B12: GFB-136 (designed binder)
peptide 1: GDDD
peptide 2: GDGY
modifications: also: 3 GDDD loops and 1 GDGY loop on But-Calix scaffold, linker to a chain's N/C-terminus via 3-aminomethyl-5-aminobenzamide
B13: GFB-104 (designed binder)
peptide: GDGD
modifications: linker N-C via 3‑aminomethyl‑5‑aminobenzamide; also: four loops on O3-Calix calix[4]arene scaffold
B14: GFB-102 (designed binder)
peptide: GDFD
modifications: linker N-C via 3‑aminomethyl‑5‑aminobenzamide; also: four loops on O4-Calix calix[4]arene scaffold
B15: GFB-110 (designed binder)
peptide: GDAD
modifications: linker N-C via 3‑aminomethyl‑5‑aminobenzamide; also: four loops on But-Calix calix[4]arene scaffold
B16: GFB-105 (designed binder)
peptide: GDFD
modifications: linker N-C via 3‑aminomethyl‑5‑aminobenzamide; also: four loops on But-Calix calix[4]arene scaffold
B17: GFB-119 (designed binder)
peptide: PDGD
modifications: linker N-C via 3‑aminomethyl‑5‑aminobenzamide; also: four loops on But-Calix scaffold
B18: GFB-137 (designed binder)
peptide 1: GDGY
peptide 2: GDDG
modifications: not fully specified; also: linker to a chain's N/C-terminus via 3-aminomethyl-5-aminobenzamide
B19: GFB-109 (designed binder)
peptide: GDLD
modifications: linker N-C via 3‑aminomethyl‑5‑aminobenzamide; also: four loops on But-Calix calix[4]arene scaffold
B20: GFB-135 (designed binder)
peptide 1: GDGY
peptide 2: GDDD
modifications: also: 3 GDGY loops and 1 GDDD loop on But-Calix scaffold, linker to a chain's N/C-terminus via 3-aminomethyl-5-aminobenzamide
B21: GFB-132 (designed binder)
peptide 1: GDGY
peptide 2: GDDG
modifications: also: 3 GDGY loops and 1 GDDG loop on But-Calix scaffold, linker to a chain's N/C-terminus via 3-aminomethyl-5-aminobenzamide

Tests used:
Assay in all cases: cell-based or functional assay
[1] = biological target: platelet derived growth factor PDGF-BB (UniProt P01127 82-190)
Chain of platelet derived growth factor PDGF-BB (P01127 82-190 limits assumed): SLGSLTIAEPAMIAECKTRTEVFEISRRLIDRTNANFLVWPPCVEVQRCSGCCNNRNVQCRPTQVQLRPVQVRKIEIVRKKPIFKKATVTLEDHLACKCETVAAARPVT

[2] = biological target: acidic fibroblast growth factor (aFGF) (UniProt P05230 16-155, limits assumed)
Chain of acidic fibroblast growth factor (aFGF) (P05230 16-155 limits assumed): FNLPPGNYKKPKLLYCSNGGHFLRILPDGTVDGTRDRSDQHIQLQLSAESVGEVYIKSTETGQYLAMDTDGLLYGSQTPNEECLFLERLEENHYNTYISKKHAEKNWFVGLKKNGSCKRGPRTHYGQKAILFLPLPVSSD

[3] = biological target: insulin-like growth factor-1 (IGF-1) (UniProt P05019 49-118)
Chain of insulin-like growth factor-1 (IGF-1) (P05019 49-118 limits assumed): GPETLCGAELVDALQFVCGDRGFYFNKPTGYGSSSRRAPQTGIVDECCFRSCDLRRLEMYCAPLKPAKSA

[4] = biological target: vascular endothelial growth factor (VEGF) (UniProt P15692-4 27-191, limits assumed)
Chain of vascular endothelial growth factor (VEGF) (P15692 other isoform, or with tags, fused parts or gaps limits assumed): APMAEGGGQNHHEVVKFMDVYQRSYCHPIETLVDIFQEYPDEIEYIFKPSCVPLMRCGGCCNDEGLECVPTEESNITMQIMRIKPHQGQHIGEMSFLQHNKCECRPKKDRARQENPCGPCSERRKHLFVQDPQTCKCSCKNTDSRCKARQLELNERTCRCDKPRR

Row | Binder | IC50, PDGFR-Y-P [1] | IC50, p42/Erk2 [1] | (IC50) Inhibition, p42 [2] | (IC50) Inhibition, p44 [2] | % Inhibition at 100 µM, IGF1R-Y-P [3] | % Inhibition at 100 µM, p42 [3] | % Inhibition at 100 µM, p44 [3] | IC50, p42/Erk2: p42 [1] | IC50, p42/Erk2: p44 [1] | IC50, Flk-1-Y-P [4] | IC50, p42 [4] | IC50, p44 [4] | (IC50) Inhibition, p42 (mean) [2] | (IC50) Inhibition, p44 (mean) [2]
1 | B1 | 1.7 µM | 19 µM | 57.3 µM per head; likely % | 71.6 µM per head; likely % | – | – | – | – | – | – | – | – | – | –
2 | B2 | 5.6 µM | 8.5 µM | 8.7 µM per head; likely % | 8.9 µM per head; likely % | 33.8% | 28.3% | 62.1% | – | – | – | – | – | – | –
3 | B3 | 1.9 µM | – | 54.8 µM per head; likely % | 64.1 µM per head; likely % | 16.8% | 4.9% | 53.5% | 2.5 µM | 2.6 µM | – | – | – | – | –
4 | B4 | 9 µM | 57 µM | 67.8 µM per head; likely % | 80.1 µM per head; likely % | – | 67.8% | 80.1% | – | – | 10 µM | 50 µM | 50 µM | – | –
5 | B5 | – | – | – | 101 µM per head; likely % | – | – | – | 3.2 µM | 3 µM | – | – | – | – | –
6 | B6 | 0.7 µM | 1.2 µM | 20.6 µM per head; likely % | 30.5 µM per head; likely % | 1.5% | 16.4% | 55.2% | – | – | – | – | – | – | –
7 | GDDY (designed binder, linker N-C via 3‑aminomethyl‑5‑aminobenzamide; also: loops on DPM-2 scaffold) [GFB-130] | – | – | 78.9 µM per head; likely % | 78.9 µM per head; likely % | – | – | – | – | – | – | – | – | – | –
8 | B7 | 29 µM | 26 µM | 59.7 µM per head; likely % and 40.2 µM per head; likely % | 62.9 µM per head; likely % and 39.6 µM per head; likely % | 0.6% | -7.6% | 30.4% | – | – | < 10 µM | 10 µM | 10 µM | – | –
9 | B8 | 8 µM | 33 µM | – | – | – | – | – | – | – | < 10 µM | < 10 µM | < 10 µM | – | –
10 | GDGY (designed binder, linker N-C via 3‑aminomethyl‑5‑aminobenzamide; also: loops on DPM-2 scaffold) [GFB-128] | – | > 50 µM | – | 43.3 µM per head; likely % | -12% | -6.1% | 38.2% | – | – | – | – | – | – | –
11 | B9 | > 500 µM | > 500 µM | – | – | – | – | – | – | – | > 100 µM | > 100 µM | > 100 µM | – | –
12 | B10 | 5.8 µM | 36 µM | 63.4 µM per head; likely % and 67.6 µM per head; likely % | 80.8 µM per head; likely % and 84.3 µM per head; likely % | 4.9% | 17.1% | 61.5% | – | – | – | – | – | – | –
13 | B11 | – | – | – | – | – | – | – | – | – | < 10 µM | 100 µM | 100 µM | – | –
14 | B12 | 3 µM | – | 73.1 µM per head; likely % | 84.5 µM per head; likely % | 40.6% | 15% | 59.5% | 25 µM | 24 µM | – | – | – | – | –
15 | B13 | – | – | – | – | -28.4% | – | – | – | – | – | – | – | – | –
16 | GDDD (designed binder, linker N-C via 3‑aminomethyl‑5‑aminobenzamide; also: loops on DPM-2 scaffold) [GFB-129] | – | – | – | – | 3.4% | 2.8% | 33.4% | – | – | – | – | – | – | –
17 | B14 | – | – | – | – | – | – | – | – | – | – | > 100 µM | > 100 µM | – | –
18 | B15 | 1.7 µM | 7 µM | 76.1 µM per head; likely % and 93 µM per head; likely % | 85.2 µM per head; likely % and 98.9 µM per head; likely % | – | – | – | – | – | – | – | – | – | –
19 | B16 | – | – | 66.4 µM per head; likely % | 75.7 µM per head; likely % | 1.3% | – | – | – | – | – | > 100 µM | > 100 µM | – | –
20 | B17 | 20 µM | 32 µM | 62.6 µM per head; likely % and 72.1 µM per head; likely % and 47.8 µM per head; likely % | 78.9 µM per head; likely % and 81.7 µM per head; likely % and 58.1 µM per head; likely % | 16.7% | 29.7% | 66.2% | – | – | – | – | – | 60.8 µM per head; likely % | 72.9 µM per head; likely %
21 | B18 | 0.4 µM | – | – | 19.9 µM per head; likely % | – | – | – | 2.9 µM | – | – | – | – | – | –
22 | B19 | 7.5 µM | 15 µM | 68.3 µM per head; likely % | 79.7 µM per head; likely % | – | 68.3% | 79.7% | – | – | – | – | – | – | –
23 | B20 | 1.9 µM | – | 44.1 µM per head; likely % | 53.9 µM per head; likely % | 16.2% | 0.8% | 46.1% | 3.2 µM | 24 µM | – | – | – | – | –
24 | B21 | 0.4 µM | – | – | 50.2 µM per head; likely % | – | – | – | 2.9 µM | – | – | – | – | – | –
